According to FireProtDB (doi:10.1006/jmbi.1999.2852):

Details: Pseudomonas aeruginosa (strain ATCC 15692 / DSM 22644 / CIP 104116 / JCM 14847 / LMG 12228 / 1C / PRS 101 / PAO1), 10 °C, GdnHCl, Fluorescence, reversible: yes (100%), whole UniProt chain shown
[1] = pH 4, phosphate/acetate 25 mM/25 mM/
[2] = pH 4.7, phosphate/acetate 25 mM/25 mM/

B1: Cytochrome c-551 wild type, P00099 (protein)
chain: MKPYALLSLLATGTLLAQGAWAEDPEVLFKNKGCVACHAIDTKMVGPAYKDVAAKFAGQAGAEAELAQRIKNGSQGVWGPIPMPPNAVSDDEAQTLAKWVLSQK
- denaturant m value (pH 3, citrate 15 mM): 3.3 kcal/mol/M
- denaturant midpoint (higher = more stable) (pH 3, citrate 15 mM): 1 M
- unfolding free energy (pH 3, citrate 15 mM): 3.3 kcal/mol
- denaturant m value [1]: 2.8 kcal/mol/M
- denaturant midpoint (higher = more stable) [1]: 2.1 M
- unfolding free energy [1]: 5.9 kcal/mol
- denaturant m value [2]: 3.1 kcal/mol/M
- denaturant midpoint (higher = more stable) [2]: 2.1 M
- unfolding free energy [2]: 6.6 kcal/mol
- denaturant m value (pH 7, Sodium phosphate 50 mM): 3.3 kcal/mol/M
- denaturant midpoint (higher = more stable) (pH 7, Sodium phosphate 50 mM): 1.8 M
- unfolding free energy (pH 7, Sodium phosphate 50 mM): 6 kcal/mol
